In one experiment the target is ubiquitin (UniProt P0CG48 1-76). The experiment can be described thus: pull-down.
Experiment [1] addresses T1, HDAC6 ZnF-UBP domain (1109–1215), His tag cleaved (UniProt Q9UBN7 1109-1215).
T1 sequence: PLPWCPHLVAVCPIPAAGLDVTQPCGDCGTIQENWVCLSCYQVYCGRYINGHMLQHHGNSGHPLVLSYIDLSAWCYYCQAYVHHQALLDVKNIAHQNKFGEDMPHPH
The experiment can be described thus: crystal structure.

B1: His-tagged UBP domain of USP5 (171–290) (domain or fragment)
chain: GEVRQVSKHAFSLKQLDNPARIPPCGWKCSKCDMRENLWLNLTDGSILCGRRYFDGSGGNNHAVEHYRETGYPLAVKLGTITPDGADVYSYDEDDMVLDPSLAEHLSHFGIDMLKMQKTD
Turning to B1, in the experiment with ubiquitin, the binding result is given as “binds”.

B2: ubiquitin C-terminal pentapeptide RLRGG (peptide)
peptide: RLRGG
As for B2, the binding result in experiment [1] was “binds”.

The values are drawn from paper PMC3268394 (The Journal of Biological Chemistry, 2011).
